Measured values: US8415393B2, “Anti-bacterial drug targeting of genome maintenance interfaces” (Wisconsin Alumni Research Foundation, priority 2007, dated 2013)
Numbering of substitutions follows the chain as printed. Where no end group is shown, it is not given here. fluorescein = fluorescein moiety attached to the N-terminus of the peptide (N-terminal fluorescein label)

What was measured:
E. coli Exonuclease I = biological target: T1, E. coli Exonuclease I (Escherichia coli, UniProt P04995 1-475); experiment: fluorescence anisotropy equilibrium binding (Kd,app), ExoI titrated into fluorescein-labeled peptide
T1 construct: also called ExoI; Exol
T1 sequence: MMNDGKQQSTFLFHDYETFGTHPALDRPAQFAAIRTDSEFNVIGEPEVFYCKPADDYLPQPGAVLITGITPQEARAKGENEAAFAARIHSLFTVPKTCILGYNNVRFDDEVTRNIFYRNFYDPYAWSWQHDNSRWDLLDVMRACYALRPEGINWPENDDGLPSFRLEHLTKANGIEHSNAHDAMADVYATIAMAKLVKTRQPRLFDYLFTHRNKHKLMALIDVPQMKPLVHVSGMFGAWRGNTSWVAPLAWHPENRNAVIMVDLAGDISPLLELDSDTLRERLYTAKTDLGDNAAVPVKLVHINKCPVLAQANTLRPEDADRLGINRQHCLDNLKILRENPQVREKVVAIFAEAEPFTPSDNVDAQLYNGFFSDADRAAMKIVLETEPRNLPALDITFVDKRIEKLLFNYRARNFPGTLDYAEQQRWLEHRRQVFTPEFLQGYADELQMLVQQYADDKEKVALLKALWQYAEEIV

ExoI Gln448Ala variant = biological target: T2, ExoI Gln448Ala variant (Escherichia coli, UniProt P04995 1-475); experiment: fluorescence anisotropy equilibrium binding (Kd,app), ExoI variant titrated into fluorescein-labeled peptide
T2 construct: helical domain residue; also called Q448A; Gln448 variant
T2 sequence: T1 sequence with Q448A

ExoI Arg316Ala variant = biological target: T3, ExoI Arg316Ala variant (Escherichia coli, UniProt P04995 1-475); experiment: as above
T3 construct: residue flanks peptide A; also called R316A; Arg316 variant
T3 sequence: T1 sequence with R316A

ExoI Arg338Ala variant = biological target: T4, ExoI Arg338Ala variant (Escherichia coli, UniProt P04995 1-475); experiment: as above
T4 construct: basic ridge residue; also called R338A; Arg338 variant
T4 sequence: T1 sequence with R338A

Binder: fluorescein-WMDFDDDIPF (also called F-SSB-Ct; F-WT) [fluorescein-labeled SSB C-terminal peptide (fluorescein-WMDFDDDIPF)]
- Kd (E. coli Exonuclease I): 136 nM
- Kd (ExoI Gln448Ala variant): 181 nM
- Kd (ExoI Arg316Ala variant): > 1000 nM
- Kd (ExoI Arg338Ala variant): 398 nM
